Measurements from article PMC5888019 (Nucleic Acids Research, 2018).
Changes are numbered by the printed parent chain. Names and notes keep the numbering of the source.

T1: Xrs2 (Flag-tagged, recombinant) (S. cerevisiae, UniProt P33301 1-854)
T1 sequence (looked up): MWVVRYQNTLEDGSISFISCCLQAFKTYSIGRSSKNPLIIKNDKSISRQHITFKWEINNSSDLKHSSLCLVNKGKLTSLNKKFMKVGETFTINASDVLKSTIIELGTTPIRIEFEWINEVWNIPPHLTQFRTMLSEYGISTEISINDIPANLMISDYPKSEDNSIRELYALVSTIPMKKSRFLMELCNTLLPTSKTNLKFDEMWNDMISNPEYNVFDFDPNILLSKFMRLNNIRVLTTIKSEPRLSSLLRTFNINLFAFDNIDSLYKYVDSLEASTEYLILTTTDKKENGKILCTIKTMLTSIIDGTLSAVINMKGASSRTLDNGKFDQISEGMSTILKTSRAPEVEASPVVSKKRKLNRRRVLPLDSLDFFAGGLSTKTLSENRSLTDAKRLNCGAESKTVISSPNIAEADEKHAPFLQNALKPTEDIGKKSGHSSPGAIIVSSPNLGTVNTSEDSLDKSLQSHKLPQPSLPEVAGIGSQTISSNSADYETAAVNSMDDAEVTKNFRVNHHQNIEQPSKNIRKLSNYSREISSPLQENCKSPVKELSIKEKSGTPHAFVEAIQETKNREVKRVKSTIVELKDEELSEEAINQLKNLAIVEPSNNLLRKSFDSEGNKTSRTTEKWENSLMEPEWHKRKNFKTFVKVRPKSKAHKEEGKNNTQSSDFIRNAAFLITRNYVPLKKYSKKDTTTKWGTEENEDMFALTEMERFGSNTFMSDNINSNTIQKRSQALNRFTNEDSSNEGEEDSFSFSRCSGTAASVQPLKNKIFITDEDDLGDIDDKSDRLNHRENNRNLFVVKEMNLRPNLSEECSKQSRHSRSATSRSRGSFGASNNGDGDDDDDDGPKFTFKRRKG

T2: Rad50 (S. cerevisiae, UniProt P12753 1-1312)
T2 sequence (looked up): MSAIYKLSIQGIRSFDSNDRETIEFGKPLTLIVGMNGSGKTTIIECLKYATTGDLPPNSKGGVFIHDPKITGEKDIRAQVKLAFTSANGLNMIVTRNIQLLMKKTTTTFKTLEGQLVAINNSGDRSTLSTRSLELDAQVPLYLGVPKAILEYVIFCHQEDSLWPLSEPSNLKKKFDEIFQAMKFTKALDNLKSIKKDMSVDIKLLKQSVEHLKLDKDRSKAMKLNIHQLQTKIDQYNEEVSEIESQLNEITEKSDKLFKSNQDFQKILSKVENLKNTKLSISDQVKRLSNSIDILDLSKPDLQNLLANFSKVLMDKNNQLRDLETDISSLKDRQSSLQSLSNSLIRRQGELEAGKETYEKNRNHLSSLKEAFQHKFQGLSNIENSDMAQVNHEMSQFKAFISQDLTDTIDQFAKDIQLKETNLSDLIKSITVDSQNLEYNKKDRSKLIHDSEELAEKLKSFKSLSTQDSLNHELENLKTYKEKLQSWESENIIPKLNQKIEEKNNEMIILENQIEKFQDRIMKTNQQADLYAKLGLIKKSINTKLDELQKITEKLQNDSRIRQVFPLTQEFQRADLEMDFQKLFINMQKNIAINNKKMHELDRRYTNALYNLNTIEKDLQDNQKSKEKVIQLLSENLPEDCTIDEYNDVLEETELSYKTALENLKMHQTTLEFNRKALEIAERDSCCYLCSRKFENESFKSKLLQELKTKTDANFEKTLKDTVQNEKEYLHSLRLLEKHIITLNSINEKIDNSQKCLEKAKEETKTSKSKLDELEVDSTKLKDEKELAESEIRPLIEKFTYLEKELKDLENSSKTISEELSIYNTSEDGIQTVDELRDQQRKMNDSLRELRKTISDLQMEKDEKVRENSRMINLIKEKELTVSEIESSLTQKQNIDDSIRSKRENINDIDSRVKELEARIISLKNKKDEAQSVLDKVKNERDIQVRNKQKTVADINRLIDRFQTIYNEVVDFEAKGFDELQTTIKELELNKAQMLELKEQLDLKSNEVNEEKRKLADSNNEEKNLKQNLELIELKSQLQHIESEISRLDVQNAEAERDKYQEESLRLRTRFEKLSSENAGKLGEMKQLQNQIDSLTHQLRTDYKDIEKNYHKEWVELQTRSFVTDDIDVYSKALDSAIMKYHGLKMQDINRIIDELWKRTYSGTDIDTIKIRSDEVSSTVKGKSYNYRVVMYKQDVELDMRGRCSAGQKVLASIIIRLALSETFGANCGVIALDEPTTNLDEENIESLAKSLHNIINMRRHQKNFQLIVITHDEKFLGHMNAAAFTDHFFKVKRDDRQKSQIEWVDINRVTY

B1: His-tagged Mre11 (wild type) (natural protein, S. cerevisiae, UniProt P32829 1-692, looked up)
chain: MDYPDPDTIRILITTDNHVGYNENDPITGDDSWKTFHEVMMLAKNNNVDMVVQSGDLFHVNKPSKKSLYQVLKTLRLCCMGDKPCELELLSDPSQVFHYDEFTNVNYEDPNFNISIPVFGISGNHDDASGDSLLCPMDILHATGLINHFGKVIESDKIKVVPLLFQKGSTKLALYGLAAVRDERLFRTFKDGGVTFEVPTMREGEWFNLMCVHQNHTGHTNTAFLPEQFLPDFLDMVIWGHEHECIPNLVHNPIKNFDVLQPGSSVATSLCEAEAQPKYVFILDIKYGEAPKMTPIPLETIRTFKMKSISLQDVPHLRPHDKDATSKYLIEQVEEMIRDANEETKQKLADDGEGDMVAELPKPLIRLRVDYSAPSNTQSPIDYQVENPRRFSNRFVGRVANGNNVVQFYKKRSPVTRSKKSGINGTSISDRDVEKLFSESGGELEVQTLVNDLLNKMQLSLLPEVGLNEAVKKFVDKDEKTALKEFISHEISNEVGILSTNEEFLRTDDAEEMKALIKQVKRANSVRPTPPKENDETNFAFNGNGLDSFRSSNREVRTGSPDITQSHVDNESRITHISQAESSKPTSKPKRVRTATKKKIPAFSDSTVISDAENELGDNNDAQDDVDIDENDIIMVSTDEEDASYGLLNGRKTKTKTRPAASTKTASRRGKGRASRTPKTDILGSLLAKKRK
B2: His-tagged Mre11-R522H (natural protein, S. cerevisiae, UniProt P32829 1-692, looked up)
chain: B1 chain with R522H

Key:
[1] = target: T1, Xrs2 (Flag-tagged, recombinant); experiment: pull-down
Rad50 = target: T2, Rad50; experiment: pull-down

| Binder | binding result [1] | binding result (Rad50) |
| --- | --- | --- |
| B1 | binds |  |
| B2 | binds | binds |
